Results published in publication PMC5395579, “Fis Regulates Type III Secretion System by Influencing the Transcription of exsA in Pseudomonas aeruginosa Strain PA14”.

Target: Fis (UniProt A0A0H2ZIA5 1-107)
Assay: EMSA
Conditions: protein: recombinant; chain copies: 2; label: none (ethidium bromide stain)

B1: exsA promoter -10 box probe (original Fis site, exsB-exsA intergenic) (dsDNA)
DNA 1: TAATCCTGATTATTATAAAATCGACTCCGTG
DNA 2: CACGGAGTCGATTTTATAATAATCAGGATTA
B1: binds.
